# Measurements taken from article PMC7579878, “Unannotated single nucleotide polymorphisms in the TATA box of erythropoiesis genes show in vitro positive involvements in cognitive and mental disorders”.
# B1: HBB rs34500389:T (-32C>T, ODN 2) (dsDNA)
# DNA 1: AGGGCTGGGTATAAAAGTCAGGGCAG
# DNA 2: CTGCCCTGACTTTTATACCCAGCCCT
# B2: EPOR TATA-like WT (ODN 5) (dsDNA)
# DNA 1: CACGTCATCTATTTTTGTCTGCTACG
# DNA 2: CGTAGCAGACAAAAATAGATGACGTG
# B3: HBZ TATA WT (ODN 3) (dsDNA)
# DNA 1: AGCTCCCTGTATATAAGGGGACCCTG
# DNA 2: CAGGGTCCCCTTATATACAGGGAGCT
# B4: EPOR rs971717705:G (-29A>G, ODN 7) (dsDNA)
# DNA 1: CACGTCATCTGTTTTTGTCTGCTACG
# DNA 2: CGTAGCAGACAAAAACAGATGACGTG
# B5: HBZ rs113180943:A (-29T>A, ODN 4) (dsDNA)
# DNA 1: AGCTCCCTGTAAATAAGGGGACCCTG
# DNA 2: CAGGGTCCCCTTATTTACAGGGAGCT
# B6: EPOR rs567946217:G (-31C>G, ODN 9) (dsDNA)
# DNA 1: CACGTCATGTATTTTTGTCTGCTACG
# DNA 2: CGTAGCAGACAAAAATACATGACGTG
# B7: HBB TATA WT (ODN 1, -32C) (dsDNA)
# DNA 1: AGGGCTGGGCATAAAAGTCAGGGCAG
# DNA 2: CTGCCCTGACTTTTATGCCCAGCCCT
# B8: EPOR rs1006576690:A (-27T>A, ODN 6) (dsDNA)
# DNA 1: CACGTCATCTATATTTGTCTGCTACG
# DNA 2: CGTAGCAGACAAATATAGATGACGTG
# Molecular target: TATA-binding protein (hTBP) (Homo sapiens, UniProt P20226 1-339)
# Sequence (P20226 whole entry): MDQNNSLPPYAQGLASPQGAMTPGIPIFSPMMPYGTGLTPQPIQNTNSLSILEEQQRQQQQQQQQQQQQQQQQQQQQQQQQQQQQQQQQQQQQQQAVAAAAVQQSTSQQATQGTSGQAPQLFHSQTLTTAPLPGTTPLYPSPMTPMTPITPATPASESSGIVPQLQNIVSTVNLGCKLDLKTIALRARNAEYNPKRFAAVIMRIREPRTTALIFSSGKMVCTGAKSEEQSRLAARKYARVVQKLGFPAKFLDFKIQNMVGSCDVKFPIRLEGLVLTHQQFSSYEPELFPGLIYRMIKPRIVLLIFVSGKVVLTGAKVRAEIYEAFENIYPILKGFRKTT
# Assay: EMSA (kinetic, kd/ka); EMSA with 32P-labelled 26 bp duplexes; binding buffer, salt, pH and temperature not given in the material
# Conditions: protein: recombinant; label: 32P (both strands); blunt
row,Binder,Kd [nM]
1,B1,32 ± 3
2,B2,170 ± 30
3,B3,6
4,B4,150 ± 30
5,B5,40 ± 20
6,B6,80 ± 10
7,B7,50
8,B8,11 ± 3
